Tests used:
Assay in all cases: cell-based or functional assay
[1] = molecular target: HLA-DQ2.5 on IHW09023 cells loaded with BC hordein peptide (human; barley)
[2] = molecular target: HLA-DQ2.5 on IHW09023 cells loaded with gamma 1 gliadin peptide (human; wheat)
[3] = molecular target: HLA-DQ2.5 on IHW09023 cells loaded with gamma 2 gliadin peptide (human; wheat)
[4] = molecular target: HLA-DQ2.5 on IHW09023 cells loaded with gamma 4d gliadin peptide (human; wheat)
[5] = molecular target: HLA-DQ2.5 on IHW09023 cells loaded with gamma 3 gliadin peptide (human; wheat)
[6] = molecular target: HLA-DQ2.5 on IHW09023 cells loaded with omega1/2 gliadin peptide (human; wheat)
[7] = molecular target: HLA-DQ2.5 on IHW09023 cells loaded with gamma 4a gliadin peptide (human; wheat)
[8] = molecular target: HLA-DQ2.5 on IHW09023 cells loaded with 33mer gliadin peptide (human; wheat)

B1: DQN0344H0976/L0591//DQN0385H1270/L0681-F6 (bispecific antibody)
heavy 1: QVQLVESGGGVVQPGGSLRLSCAASGFTFSSAYWMVWVRQAPGQGLEWMGAVYGGSDTTYYAKWTEGRFTISRDTSKNTLYLQMNSLRAEDTAVYYCAREPLNYYYYGELNLWGQGTLVTVSSASTKGPSVFPLAPSSKSTSGGTAALGCLVKDYFPEPVTVSWNSGALTSGVHTFPAVLKSSGLYSLSSVVTVPSSSLGTQTYICNVNHKPSNTKVDKRVEPKSCDKTHTCPPCPAPELRRGPSVFLFPPKPKDTLMISRTPEVTCVVVDVSHEDPEVKFNWYVDGVEVHNAKTKPREEQYNSTYRVVSVLTVLHQDWLNGKEYKCKVSNKALPAPIEKTISKAKGQPREPQVYTLPPSREEMTKNQVSLTCLVKGFYPSDIAVEWESNGQPENNYKTTPPYLDSDGSFFLYSKLTVDKSRWQEGNVFSCSVLHEALHAHYTREELSLSP
light 1: DIQMTQSPSSLSASVGDRVTITCQATEEIYSGLAWYQQKPGKAPKLLIYYVSTLYEGIPARFSGSGSGTDFTLTISSLEPEDFAVYYCQTYEDVSAVTFGQGTKVEIKRTVAAPSVFIFPPSDEQLKSGTAEVVCLLNNFYPREAKVQWKVDNALQSGNSEESVTEQDSKDSTYSLSSTLTLSKADYEKHKVYACEVTHQGLSSPVTKSFNRGEC
heavy 2: QVQLVESGGGVVQPGRSLRLSCAASGFTFSEWYFMSWVRQAPGKGLEWVASIDTGSGSIDYAEWVEGRFTISRDNSKNTLYLQMNSLRAEDTAVYYCARDIGIDYNFWGPGTLVTVSSASTKGPSVFPLAPSSKSTSGGTAALGCLVEDYFPEPVTVSWNSGALTSGVHTFPAVLESSGLYSLSSVVTVPSSSLGTKTYICNVNHKPSNTKVDKRVEPKSCDKTHTCPPCPAPELRRGPSVFLFPPKPKDTLMISRTPEVTCVVVDVSHEDPEVKFNWYVDGVEVHNAKTKPREEQYNSTYRVVSVLTVLHQDWLNGKEYKCKVSNKALPAPIEKTISKAKGQPREPQVYTLPPSRKEMTKNQVSLTCLVKGFYPSDIAVEWESNGQPENNYKTTPPYLDSDGSFFLYSKLTVDKSRWQQGNVFSCSVLHEALHAHYTRKELSLSP
light 2: DIQMTQSPSSLSASVGDRVTITCQTTQSISSYLNWYQQKPGQPPKLLIYYASTKAEGIPARFSGSGLGTDFTLTISSLEPEDFAVYYCHYGISKVSFGQGTKVEIKRTVAAPSVFIFPPSDEQLKSGTAKVVCLLNNFYPREAKVQWKVDNALQSGNSKESVTEQDSKDSTYSLSSTLTLSKADYEKHKVYACEVTHQGLSSPVTKSFNRGEC
[1]
  IC50 (ng/mL), BC hordein TCR, 250 nM BC hordein: 12 ng/mL
[2]
  IC50 (ng/mL), γ1 gliadin TCR, 250 nM γ1 gliadin: 1.05 ng/mL
[3]
  IC50 (ng/mL), γ2 gliadin TCR, 250 nM γ2 gliadin: 182 ng/mL
[4]
  IC50 (ng/mL), γ4d gliadin TCR, 100 µM γ4d gliadin: 11.8 ng/mL
[5]
  IC50 (ng/mL), γ3 gliadin TCR, 100 µM γ3 gliadin: 2.4 ng/mL
[6]
  IC50 (ng/mL), ω1 gliadin TCR, 25 µM ω1/2 gliadin: 2.07 ng/mL
  IC50 (ng/mL), ω2 gliadin TCR, 250 nM ω1/2 gliadin: 0.26 ng/mL
[7]
  IC50 (ng/mL), γ4a gliadin TCR, 25 µM γ4a gliadin: 749 ng/mL
[8]
  IC50 (ng/mL), α1b gliadin TCR, 250 nM 33mer gliadin: 1.36 ng/mL
  IC50 (ng/mL), α2 gliadin TCR, 250 nM 33mer gliadin: 0.34 ng/mL

B2: DQN0344H0976/L0591//DQN0385H1255/L0605-F6 (bispecific antibody)
heavy 1: QVQLVESGGGVVQPGGSLRLSCAASGFTFSSAYWMVWVRQAPGQGLEWMGAVYGGSDTTYYAKWTEGRFTISRDTSKNTLYLQMNSLRAEDTAVYYCAREPLNYYYYGELNLWGQGTLVTVSSASTKGPSVFPLAPSSKSTSGGTAALGCLVKDYFPEPVTVSWNSGALTSGVHTFPAVLKSSGLYSLSSVVTVPSSSLGTQTYICNVNHKPSNTKVDKRVEPKSCDKTHTCPPCPAPELRRGPSVFLFPPKPKDTLMISRTPEVTCVVVDVSHEDPEVKFNWYVDGVEVHNAKTKPREEQYNSTYRVVSVLTVLHQDWLNGKEYKCKVSNKALPAPIEKTISKAKGQPREPQVYTLPPSREEMTKNQVSLTCLVKGFYPSDIAVEWESNGQPENNYKTTPPYLDSDGSFFLYSKLTVDKSRWQEGNVFSCSVLHEALHAHYTREELSLSP
light 1: DIQMTQSPSSLSASVGDRVTITCQATEEIYSGLAWYQQKPGKAPKLLIYYVSTLYEGIPARFSGSGSGTDFTLTISSLEPEDFAVYYCQTYEDVSAVTFGQGTKVEIKRTVAAPSVFIFPPSDEQLKSGTAEVVCLLNNFYPREAKVQWKVDNALQSGNSEESVTEQDSKDSTYSLSSTLTLSKADYEKHKVYACEVTHQGLSSPVTKSFNRGEC
heavy 2: QVQLVESGGGVVQPGRSLRLSCAASGFTFSEWYFMSWVRQAPGKGLEWVASIDTGSGSIDYAGWVEERFTISRDNSKNTLYLQMNSLRAEDTAVYYCARDIGIDYNFWGPGTLVTVSSASTKGPSVFPLAPSSKSTSGGTAALGCLVEDYFPEPVTVSWNSGALTSGVHTFPAVLESSGLYSLSSVVTVPSSSLGTKTYICNVNHKPSNTKVDKRVEPKSCDKTHTCPPCPAPELRRGPSVFLFPPKPKDTLMISRTPEVTCVVVDVSHEDPEVKFNWYVDGVEVHNAKTKPREEQYNSTYRVVSVLTVLHQDWLNGKEYKCKVSNKALPAPIEKTISKAKGQPREPQVYTLPPSRKEMTKNQVSLTCLVKGFYPSDIAVEWESNGQPENNYKTTPPYLDSDGSFFLYSKLTVDKSRWQQGNVFSCSVLHEALHAHYTRKELSLSP
light 2: DIQMTQSPSSLSASVGDRVTITCQTTQSISSYLNWYQQKPGQPPKLLIYYASTKAEGIPARFSGSGSGTDFTLTISSLEPEDFAVYYCHYGISKVSFGQGTKVEIKRTVAAPSVFIFPPSDEQLKSGTAKVVCLLNNFYPREAKVQWKVDNALQSGNSKESVTEQDSKDSTYSLSSTLTLSKADYEKHKVYACEVTHQGLSSPVTKSFNRGEC
[1]
  IC50 (ng/mL), BC hordein TCR, 250 nM BC hordein: 13.6 ng/mL
[2]
  IC50 (ng/mL), γ1 gliadin TCR, 250 nM γ1 gliadin: 0.91 ng/mL
[3]
  IC50 (ng/mL), γ2 gliadin TCR, 250 nM γ2 gliadin: 440 ng/mL
[4]
  IC50 (ng/mL), γ4d gliadin TCR, 100 µM γ4d gliadin: 12.4 ng/mL
[5]
  IC50 (ng/mL), γ3 gliadin TCR, 100 µM γ3 gliadin: 2.31 ng/mL
[6]
  IC50 (ng/mL), ω1 gliadin TCR, 25 µM ω1/2 gliadin: 2.62 ng/mL
  IC50 (ng/mL), ω2 gliadin TCR, 250 nM ω1/2 gliadin: 0.25 ng/mL
[7]
  IC50 (ng/mL), γ4a gliadin TCR, 25 µM γ4a gliadin: 1430 ng/mL
[8]
  IC50 (ng/mL), α1a gliadin TCR, 250 nM 33mer gliadin: 0.49 ng/mL
  IC50 (ng/mL), α1b gliadin TCR, 250 nM 33mer gliadin: 2.66 ng/mL
  IC50 (ng/mL), α2 gliadin TCR, 250 nM 33mer gliadin: 0.56 ng/mL

B3: DQN0344H0976/L0591//DQN0385H1270/L0722-F6 (bispecific antibody)
heavy 1: QVQLVESGGGVVQPGGSLRLSCAASGFTFSSAYWMVWVRQAPGQGLEWMGAVYGGSDTTYYAKWTEGRFTISRDTSKNTLYLQMNSLRAEDTAVYYCAREPLNYYYYGELNLWGQGTLVTVSSASTKGPSVFPLAPSSKSTSGGTAALGCLVKDYFPEPVTVSWNSGALTSGVHTFPAVLKSSGLYSLSSVVTVPSSSLGTQTYICNVNHKPSNTKVDKRVEPKSCDKTHTCPPCPAPELRRGPSVFLFPPKPKDTLMISRTPEVTCVVVDVSHEDPEVKFNWYVDGVEVHNAKTKPREEQYNSTYRVVSVLTVLHQDWLNGKEYKCKVSNKALPAPIEKTISKAKGQPREPQVYTLPPSREEMTKNQVSLTCLVKGFYPSDIAVEWESNGQPENNYKTTPPYLDSDGSFFLYSKLTVDKSRWQEGNVFSCSVLHEALHAHYTREELSLSP
light 1: DIQMTQSPSSLSASVGDRVTITCQATEEIYSGLAWYQQKPGKAPKLLIYYVSTLYEGIPARFSGSGSGTDFTLTISSLEPEDFAVYYCQTYEDVSAVTFGQGTKVEIKRTVAAPSVFIFPPSDEQLKSGTAEVVCLLNNFYPREAKVQWKVDNALQSGNSEESVTEQDSKDSTYSLSSTLTLSKADYEKHKVYACEVTHQGLSSPVTKSFNRGEC
heavy 2: QVQLVESGGGVVQPGRSLRLSCAASGFTFSEWYFMSWVRQAPGKGLEWVASIDTGSGSIDYAEWVEGRFTISRDNSKNTLYLQMNSLRAEDTAVYYCARDIGIDYNFWGPGTLVTVSSASTKGPSVFPLAPSSKSTSGGTAALGCLVEDYFPEPVTVSWNSGALTSGVHTFPAVLESSGLYSLSSVVTVPSSSLGTKTYICNVNHKPSNTKVDKRVEPKSCDKTHTCPPCPAPELRRGPSVFLFPPKPKDTLMISRTPEVTCVVVDVSHEDPEVKFNWYVDGVEVHNAKTKPREEQYNSTYRVVSVLTVLHQDWLNGKEYKCKVSNKALPAPIEKTISKAKGQPREPQVYTLPPSRKEMTKNQVSLTCLVKGFYPSDIAVEWESNGQPENNYKTTPPYLDSDGSFFLYSKLTVDKSRWQQGNVFSCSVLHEALHAHYTRKELSLSP
light 2: DIQMTQSPSSLSASVGDRVTITCQTTQSISSYLNWYQQKPGQPPKLLIYYASTKAEGIPARFSGSGLGTDFTLTISSLQPEDFAVYYCHYGISKVSFGQGTKVEIKRTVAAPSVFIFPPSDEQLKSGTAKVVCLLNNFYPREAKVQWKVDNALQSGNSKESVTEQDSKDSTYSLSSTLTLSKADYEKHKVYACEVTHQGLSSPVTKSFNRGEC
[1]
  IC50 (ng/mL), BC hordein TCR, 250 nM BC hordein: 13.2 ng/mL
[2]
  IC50 (ng/mL), γ1 gliadin TCR, 250 nM γ1 gliadin: 0.66 ng/mL
[3]
  IC50 (ng/mL), γ2 gliadin TCR, 250 nM γ2 gliadin: 281 ng/mL
[4]
  IC50 (ng/mL), γ4d gliadin TCR, 100 µM γ4d gliadin: 16.3 ng/mL
[5]
  IC50 (ng/mL), γ3 gliadin TCR, 100 µM γ3 gliadin: 2.88 ng/mL
[6]
  IC50 (ng/mL), ω1 gliadin TCR, 25 µM ω1/2 gliadin: 2.55 ng/mL
  IC50 (ng/mL), ω2 gliadin TCR, 250 nM ω1/2 gliadin: 0.26 ng/mL
[7]
  IC50 (ng/mL), γ4a gliadin TCR, 25 µM γ4a gliadin: 726 ng/mL
[8]
  IC50 (ng/mL), α1a gliadin TCR, 250 nM 33mer gliadin: 0.38 ng/mL
  IC50 (ng/mL), α1b gliadin TCR, 250 nM 33mer gliadin: 1.41 ng/mL
  IC50 (ng/mL), α2 gliadin TCR, 250 nM 33mer gliadin: 0.31 ng/mL

Reference: patent US20240400693A1 (Chugai, published 2024)
